# Reference: patent US7754689B2, “Finger-1 peptide analogs of the TGF-β superfamily” (Wyeth LLC, priority 2006, dated 2010)
# T1: BMP-12 (Homo sapiens, UniProt Q7Z4P5)
# T1 sequence (Q7Z4P5 322-450): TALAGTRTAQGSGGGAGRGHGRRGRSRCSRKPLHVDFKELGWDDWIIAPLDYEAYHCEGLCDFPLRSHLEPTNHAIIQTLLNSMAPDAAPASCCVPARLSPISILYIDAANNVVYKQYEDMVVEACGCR
# Target: T1, BMP-12
# Test: Affinity column chromatography, capture and elution of BMP-12
# Assay type: binding
# Experimental: BMP-12 was immobilized on NHS-activated Sepharose™ beads at a ratio of about 20 mg:4 mL and the resulting media combined with water or neutral saline buffer to prepare a column. CHO-conditioned media augmented with 1.2 M NaCl was loaded onto the column. In some cases, the media was preconcentrated with respect to BMP before loading. The column was washed with 15 CV (column volumes) of 1.2 M NaCl in 40 mM Na2HPO4 at pH 7.2, followed by 0.5 M arginine/0.5 M NaCl in 20 mM Tris at pH 7.5 (15 CV) and a low salt wash (50 mM ammonium acetate at pH 7, 15 CV). […] Finally, the column was eluted with 5CV of the acetic acid solution with 6M guanidine hydrochloride (GuHCl).
# BMP-12 was loaded and eluted from a BMP-12 affinity column as in Example 1.
# BMP-12 was purified using a column prepared with the BMP-12 wild type peptide described in Example 7.
molecule,measurement,setting,value
"BMP-12: Bone Morphogenic Protein, member of the TGF-β superfamily; tested in solution and immobilized on Sepharose beads as affinity ligand (protein) TALAGTRTAQGSGGGAGRGHGRRGRSRCSRKPLHVDFKELGWDDWIIAPLDYEAYHCEGLCDFPLRSHLEPTNHAIIQTLLNSMAPDAAPASCCVPARLSPISILYIDAANNVVYKQYEDMVVEACGCR",capture of BMP-12 by column with immobilized ligand,high salt / high ionic strength load,effectively captured
same,elution of BMP-12 from column with immobilized ligand,"washes, then gradient to 50 mM acetic acid pH 3, then 6M GuHCl",eluted with acetic acid and guanidine
